Patent US20230047179A1 (SYDDANSK UNIVERSITET, published 2023)

T1: recombinant human MFAP4 (human, UniProt P55083 22-255)
T1 construct: mature; also called rhMFAP4; hrMFAP4
T1 sequence (looked up): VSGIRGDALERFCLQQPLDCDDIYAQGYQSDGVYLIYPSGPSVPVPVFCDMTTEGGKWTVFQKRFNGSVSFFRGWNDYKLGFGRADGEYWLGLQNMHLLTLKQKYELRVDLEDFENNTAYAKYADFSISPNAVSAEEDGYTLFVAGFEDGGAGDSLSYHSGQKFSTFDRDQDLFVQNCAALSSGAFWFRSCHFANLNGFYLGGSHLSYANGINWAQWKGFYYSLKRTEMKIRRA

T2: recombinant mouse MFAP4 (mouse, UniProt Q9D1H9 23-257)
T2 construct: mature; The expression plasmid is pcDNA5/FRT/V5-His TOPO TA; also called murine MFAP4; mouse serum MFAP4
T2 sequence (looked up): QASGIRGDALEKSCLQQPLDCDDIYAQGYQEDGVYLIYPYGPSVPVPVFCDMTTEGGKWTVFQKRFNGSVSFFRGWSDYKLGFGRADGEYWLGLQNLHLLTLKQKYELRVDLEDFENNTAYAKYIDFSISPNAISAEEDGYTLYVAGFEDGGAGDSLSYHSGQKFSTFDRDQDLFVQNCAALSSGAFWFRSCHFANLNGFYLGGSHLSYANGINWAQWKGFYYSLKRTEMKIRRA

T3: recombinant human MFAP4 with RGD integrin binding motif mutated to AAA (human, UniProt P55083 22-255)
T3 construct: mature; also called human MFAP4 RGD-AAA mutation
T3 sequence (looked up): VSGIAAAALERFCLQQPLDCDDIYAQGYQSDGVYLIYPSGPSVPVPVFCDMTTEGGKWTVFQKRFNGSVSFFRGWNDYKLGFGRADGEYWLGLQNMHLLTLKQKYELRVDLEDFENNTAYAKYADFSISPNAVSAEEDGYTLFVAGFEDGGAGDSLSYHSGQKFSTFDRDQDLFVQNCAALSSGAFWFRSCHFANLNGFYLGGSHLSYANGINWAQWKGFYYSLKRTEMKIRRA


Key:
recombinant human MFAP4 [1] = target: T1, recombinant human MFAP4; experiment: SPR, Biacore T200
recombinant mouse MFAP4 = target: T2, recombinant mouse MFAP4; experiment: direct ELISA, biotinylated antibody on coated recombinant mouse MFAP4, streptavidin-HRP
Experimental: (§1) 96-well plates (Nunc-MaxiSorp) (Nunc™) were coated with 0.5 μg recombinant mouse MFAP4, recombinant human MFAP4 and recombinant human MFAP4 with the RGD-sequence mutated to AAA in PBS O.N at 4° C. Coating was followed by washing and then blocking in TBS/Tw O.N at 4° C. Blocking was followed by addition of biotinylated antibodies diluted 2-fold from an initial concentration of 100 ng/ml. The plates were then incubated for 2 hours at R.T. The plates were washed three times in TBS/Tw and incubated for 20 minutes with Strepavidin Horseradish Peroxidase (HRP) conjugate (Invitrogen) diluted 1:2000 in TBS/Tw. After final three washes, the amount of bound enzyme was estimated by adding OPD (0.8 mg/ml, Kementec, Taastrup, Denmark) dissolved in substrate buffer (0.03% freshly prepared H₂O₂) and allowed to react for 15 minutes in the dark at RT. Colour development was stopped by the addition of 100 μl 1 M H₂SO₄, and the plates were read at OD₄₉₂ nm with OD₆₀₀ nm as reference.

recombinant human MFAP4 [2] = target: T1, recombinant human MFAP4; experiment: competition ELISA on immobilized recombinant human MFAP4; competitor: biotinylated hAS0326 at 0.5 µg/ml
Experimental: (§2) Biotinylated A) HG HYB 7-5 (biotinHYB7-5), B) hAS0326 ([…]) and C) mAS0326 (bmAS0326) at a fixed concentration of 0.5 μg/ml were mixed with unlabelled IgG isotype control, HG HYB 7-18 (HYB7-18), HG HYB 7-5 (HYB7-5), hAS0326 and mAS0326 in a 2-fold dilution from 20 μg/ml. […] Only HG Hyb 7-5 was capable of inhibiting the HG HYB 7-5 interaction with target. In contrast, mAS0326 was capable of inhibiting hAS0326 binding to target and vice versa.
(§3) 96-well plates (Nunc-MaxiSorp) were coated with 0.5 μg recombinant human MFAP4 in PBS O.N at 4° C. followed by washing and then blocking in TBS/Tw O.N at 4° C. Biotinylated Mab (0.5 μg/ml) and unlabeled MAbs (diluted 2-fold from 20 μg/ml to 156 ng/ml) were premixed in a separate microtiterplate in TBS/Tw and then added to the MFAP4 coated microtiter plate. The plates were following incubated for 2 hours at R.T. The plates were washed three times in TBS/Tw and incubated for 20 min with Strepavidin Horseradish Peroxidase (HRP) conjugate (Invitrogen) diluted 1:2000 in TBS/Tw. […] Colour development was stopped by the addition of 100 μl 1 M H₂SO₄, and the plates were read at OD₄₉₂ nm with OD₆₀₀ nm as reference.

recombinant human MFAP4 [3] = target: T1, recombinant human MFAP4; experiment: competition ELISA on immobilized recombinant human MFAP4; competitor: biotinylated mAS0326 at 0.5 µg/ml
Experimental: as §2, §3

recombinant human MFAP4 [4] = target: T1, recombinant human MFAP4; experiment: competition ELISA on immobilized recombinant human MFAP4; competitor: biotinylated HG HYB 7-5 at 0.5 µg/ml
Experimental: as §2, §3

[5] = target: T3, recombinant human MFAP4 with RGD …; experiment: direct ELISA, biotinylated antibody on coated recombinant human MFAP4 with RGD mutated to AAA, streptavidin-HRP
Experimental: as §1

Kd (recombinant human MFAP4 [1]) [nM]	binding result (recombinant mouse MFAP4)	IC50 (read off the curve) (recombinant human MFAP4 [2]) [µg/mL]	IC50 (read off the curve) (recombinant human MFAP4 [3]) [µg/mL]	IC50 (read off the curve) (recombinant human MFAP4 [4]) [µg/mL]	binding result [5]	Binder
0.14	binds	~0.9	~0.9	–	–	mAS0326 (antibody, V domains shown, Murine hybridoma monoclonal antibody raised against human recombinant MFAP4; also called biotinmAS0326; bmAS0326) VH: QVQLQQPGADLVKPGTSVKLSCKASGFTFTSYWMHWVKQRPGQGLEWIGVIHPNSGNTKYNEKFRSEATLTVDKSSNTAYIQLSSLTSEDSAVYYCAREMWNYGNSWYFDVWGTGTTVTVSS VL: DVQIIQSPSYLAASPGETITINCRASKSISKYLAWYQERPGKTNKLLIYSGSTLQSGIPSRFSGSGSGTDFTLTISSLEPEDFAMYYCQQHNEYPFTFGAGTKLELK
0.504	–	–	–	–	–	Chimeric antibody (mAS0326 with human Fc, CHO expression) (antibody, V domains shown) VH: QVQLQQPGADLVKPGTSVKLSCKASGFTFTSYWMHWVKQRPGQGLEWIGVIHPNSGNTKYNEKFRSEATLTVDKSSNTAYIQLSSLTSEDSAVYYCAREMWNYGNSWYFDVWGTGTTVTVSS VL: DVQIIQSPSYLAASPGETITINCRASKSISKYLAWYQERPGKTNKLLIYSGSTLQSGIPSRFSGSGSGTDFTLTISSLEPEDFAMYYCQQHNEYPFTFGAGTKLELK
–	no binding (tested: 100 ng/ml)	–	–	~0.8	no binding (tested: 100 ng/ml)	HG HYB 7-5 (antibody, V domains shown, also called biotinHYB7-5) VH: EVQLQQSGPELVKPGASVKLSCKTSGYTFTSYDMNWVKQRPGQGLEWIGWIFPRDGSTKFNEKFKGKATLTVDTSSTTAYMELHSLTSEDSAVYFCARAEIFFDYGFDYWGQGTTLTVSS VL: DIVMTQSTALMAASPGEKVTITCSVSSSISSSNLHWYQQKSETSPKSWIYGTSNLASGVPGRFSGSGSGTSYSLTISSVEAEDAATYYCQQWSSYPLTFGGGTKLEIK
